Results as given in paper PMC7335187 (2020).

B1: Atg40^234–252 peptide [S. cerevisiae] / Atg8 (1-116) K26P [S. cerevisiae] (parent complex)
chain 1: TSTEFPNDYDFMEDILDET
chain 2: MKSTFKSEYPFEKRKAESERIADRFPNRIPVICEKAEKSDIPEIDKRKYLVPADLTVGQFVYVIRKRIMLPPEKAIFIFVNDTLPPTAALMSAIYQEHKDKDGFLYVTYSGENTFG

Variants of: B1
Test: ITC
chain 1 F5A was tested, and the Kd was 4.31 µM.
Work on chain 1 Y9A yielded a Kd of 32.7 µM.

Variants of: B1
Test: ITC
Remark: another data set of the same source
chain 2 R67A gave a Kd of 24.8 µM.
